Molecular target: MHC class I (human)
Test: cell-based or functional assay

monoclonal antibody to MHC class I (w6/32 without sodium azide, Cat. No. 16-9983, e-Bioscience, Inc.)
IFN-γ production (ELISPOT, PBMC stimulated with CMV pp65 peptide …), percent inhibited, 2 µl W6/32: 27 to 42%
IFN-γ production (ELISPOT, PBMC stimulated with CMV pp65 peptide …), percent inhibited, 10 µl W6/32: 58 to 71%

From patent publication US20050074822A1
